Source: patent US20240254227A1 (Alector, published 2024)
Where a chain is given by its changes, count along the chain named.

T1: huCD300F constitutively expressed on 293 Freestyle (Freestyle HEK) cells (human, UniProt Q8TDQ1 20-290)
T1 construct: also called huCD300LF; Human CD300F
T1 sequence: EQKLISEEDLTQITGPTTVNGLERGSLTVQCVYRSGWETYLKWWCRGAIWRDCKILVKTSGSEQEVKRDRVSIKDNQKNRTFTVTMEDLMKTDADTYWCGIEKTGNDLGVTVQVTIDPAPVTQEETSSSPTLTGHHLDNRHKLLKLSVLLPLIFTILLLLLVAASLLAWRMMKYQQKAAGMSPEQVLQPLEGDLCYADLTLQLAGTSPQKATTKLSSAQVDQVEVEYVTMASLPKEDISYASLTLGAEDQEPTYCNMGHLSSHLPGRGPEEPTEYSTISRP

T2: human CD300LB transiently expressed on HEK293 cells (human, UniProt A8K4G0 18-201)
T2 construct: CD300LB expression constructs'; also called huCD300LB HEK293
T2 sequence: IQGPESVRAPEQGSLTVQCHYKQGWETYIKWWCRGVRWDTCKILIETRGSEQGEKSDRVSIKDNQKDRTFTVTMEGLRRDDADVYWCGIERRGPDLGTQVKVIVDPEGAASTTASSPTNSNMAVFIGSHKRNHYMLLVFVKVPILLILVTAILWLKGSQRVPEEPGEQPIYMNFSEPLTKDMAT

T3: recombinant human CD300LB overexpressed on Jurkat cells (human, UniProt A8K4G0 18-201)
T3 construct: also called huCD300LB; huCD300LB-expressing Jurkat cells
T3 sequence: T2 sequence

T4: human CD300LB on primary human monocytes (human, UniProt A8K4G0 18-201)
T4 construct: Endogenous protein on primary cells; that the target is CD300LB is inferred from the antibodies being anti-CD300LB antibodies; also called Monocyte donor 1281; Monocyte donor 1282
T4 sequence: T2 sequence

T5: human CD300LB on primary human macrophages (human, UniProt A8K4G0 18-201)
T5 sequence: T2 sequence

T6: murine CD300LB stably expressed on Jurkat cells (mouse, UniProt Q3U497 18-209)
T6 construct: also called muCD300LB; mouse CD300LB
T6 sequence: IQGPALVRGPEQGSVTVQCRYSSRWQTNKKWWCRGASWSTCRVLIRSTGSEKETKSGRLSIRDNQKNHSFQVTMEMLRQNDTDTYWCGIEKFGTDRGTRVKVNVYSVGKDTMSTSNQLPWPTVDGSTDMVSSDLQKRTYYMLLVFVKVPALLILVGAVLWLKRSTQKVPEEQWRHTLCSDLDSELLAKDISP

B1: anti-CD300LB antibody CD-09 (antibody, V domains shown)
VH: QVQLVQSGAEVKKPGASVKVSCKASGYTFTTYAVHWVRQAPGQGLEWMGIINPNSGGTNYAQKFQGRVTMTRDTSTSTVYMELSSLRSEDTAVYYCARDIVPMNNFYNYYYGMDVWGQGTTVTVSS
VL: DIQMTQSPSSLSASVGDRVTITCRASQSISSYLNWYQQKPGKAPKLLIYATSTLQSGVPSRFSGSGSGTDFTLTISSLQPEDFATYYCQQSYRIPYTFGQGTKVEIK
B2: anti-CD300LB antibody CD-08 (antibody, V domains shown)
VH: EVQLLESGGGLVQPGGSLRLSCAASGFTFSNAWMSWVRQAPGKGLEWVSVISGSGGRTYYADSVKGRFTISRDNSKNTLYLQMNSLRAEDTAVYYCARDGTTVAPKGMDVWGQGTTVTVSS
VL: B1 VL with R24Q, S28D, S30N, S31N, L33V, T51A, T53N, R93S, I94P, V104L
B3: anti-CD300LB antibody CD-04 (antibody, V domains shown)
VH: QVQLQQSGAELVRPGASVTLSCRASGYTFTDFEMHWVKQTPLHGLEWIGAIAPETGGTAYNQKFKGKAILTADKSSSTAYVELRSLTSEDSAVYFCTRLGGMDYWGQGTSVTVSS
VL: DVVMTQTPLSLPVSLGDQASISCRSSQTLVHNNGNTYLYWYLQKPGQSPKLLIYQVSNRFFGVPDRFSGSGSGTDFTLKISRVEAEDLGLYFCSQSTHVPWTFGGGTKLEIK

How the values were obtained:
[1] = biological target: T7, huCD300LB-DAP12 fusion constitutively expressed on 293 Freestyle (Freestyle HEK) cells (human); assay: flow cytometry, stable Freestyle HEK cells
T7 construct: also called Human CD300LB-DAP12 chimera
Description: (§1) Other members of the human CD300 family share sequence homology with human CD300LB. Thus, counter screens against binding of the anti-CD300LB antibodies to huCD300A, huCD300C, huCD300LD, huCD300E, huCD300LF, and huCD300G by stable overexpression in Freestyle HEK cells (generation of which is described above) were performed as follows. Cells were counted and labeled with 200 nM CFSE, 500 nM VioBlue, or a combination of the two to discriminate between CD300LB, Parental cells, and the other CD300 family members. Cells were washed thoroughly with PBS containing 2% fetal bovine serum then resuspended at a total of 240,000 cells per well. Hybridoma supernatants (100 L) or purified antibodies at various concentrations were added and incubated for one hour before the cells were washed twice again and stained with an APC-labeled anti-human or anti-mouse secondary antibody. Cells were then analyzed using a BD FACSCanto II. Anti-CD300LB antibodies were analyzed for specific binding to human CD300LB by FlowJo software by gating on live cells, then the APC geometric mean fluorescence intensity (gMFI) calculated for each labeled population. The results are shown in […]
(§2) Freestyle HEK cells were transfected with huCD300A, huCD300C, huCD300D, huCD300E, and huCD300G separately. Then, five stable cell lines from these transfections were pooled; the combined cells are herein known as CD300A/C/D/E/G. Freestyle HEK cells were also transfected with huCD300LB and huCD300F. All transfected cells were then tested for binding of anti-CD300LB antibodies of the present disclosure.
Target sequence in this assay (chain, as listed by the source limits assumed): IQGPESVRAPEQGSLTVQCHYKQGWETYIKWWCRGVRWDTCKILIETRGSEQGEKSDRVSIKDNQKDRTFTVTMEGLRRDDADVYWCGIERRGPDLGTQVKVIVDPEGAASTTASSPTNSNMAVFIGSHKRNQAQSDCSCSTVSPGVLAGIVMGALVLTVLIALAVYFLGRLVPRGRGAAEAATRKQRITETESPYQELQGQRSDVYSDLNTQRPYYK

[2] = biological target: T1, huCD300F constitutively expressed on …; assay: flow cytometry, stable Freestyle HEK cells
Description: as §1, §2

[3] = biological target: T2, human CD300LB transiently expressed on …; assay: flow cytometry, transfected HEK293, 10 ug/mL, isotype subtracted
Description: In addition, supernatants or purified antibodies were tested for species crossreactivity by comparing the binding of human, mouse, and cynomolgous monkey CD300LB expressing cell lines. HEK293 were transfected with […] of human, mouse, and cyno CD300LB expression constructs using the Mirus system in 10 cm tissue culture dishes. Cells were then incubated for 24 hours in complete medium. Cells were harvested by incubation in TrypLE Express, then washed with PBS and labeled with 200 nM CFSE, 500 nM VioBlue, or a combination of the two to discriminate between human, mouse, and cyno CD300LB expressing cells. Cells were washed thoroughly with PBS containing 2% fetal bovine serum then resuspended at a total of 240,000 cells per well. Purified antibodies at 10 μg/mL were added and incubated for one hour before the cells were washed again and stained with an APC-labeled anti-human or anti-mouse secondary. Cells were then analyzed using a BD FACSCanto II. Antibodies were analyzed for specific binding to human, mouse, or cyno CD300LB by FlowJo software by gating on live cells, then the APC gMFI calculated for each labeled population minus the gMFI of the isotype control.

[4] = biological target: T3, recombinant human CD300LB overexpressed …; assay: flow cytometry on Jurkat cells overexpressing huCD300LB, apparent KD (Drake & Klakamp fit)
Description: Purified anti-CD300LB antibodies of the present disclosure were evaluated for their binding affinity to either Jurkat cells overexpressing recombinant huCD300LB or BaF/3 cells overexpressing recombinant muCD300LB. Binding of anti-CD300LB antibodies to the cells was determined as follows. Cells were harvested, washed, and labeled with propidium iodide for viability discrimination. After washing the cells with PBS, 1×10⁵ cells were aliquoted per well in 96-well U-bottom plates and incubated with 100 μL of purified anti-CD300LB antibody at various concentrations in FACS buffer (PBS+2% FBS). After this primary incubation, the supernatant was removed via centrifugation, the cells washed twice with 150 μL of ice-cold FACS buffer, and then incubated with the appropriate secondary antibody on ice for 30 minutes. Following the secondary antibody incubation, the cells were again washed twice with ice-cold FACS buffer and resuspended in a final volume of 200 L FACS buffer. Flow cytometry analysis was then performed using the FACSCanto system (BD Biosciences).
To determine affinity, antibodies at increasing concentrations were used to stain Jurkat cells overexpressing huCD300LB and geometric MFI values measured by the flow cytometer were analyzed on Prism (Graphpad) software.

[5] = biological target: T4, human CD300LB on primary human monocytes; assay: flow cytometry, primary human monocytes donor 1281, 10 ug/mL antibody, isotype control subtracted
Description: (§3) Human monocytes from various donors were isolated from whole blood using RosetteSep Human Monocyte Enrichment Cocktail (Stemcell technologies) and Ficoll centrifugation per manufacturer protocols. After lysing red blood cells with ACK lysing buffer, monocytes were resuspended in complete media (RPMI, 10% FBS, Pen/Strep, L-glutamine, HEPES, non-essential amino acid, Sodium pyruvate). To obtain macrophages from these isolated monocytes, 100 ng/ml human M-CSF and 8% v/v human serum were added to the cells for 5-7 days. Cells were counted on the day of the experiment and plated at 100,000 cells per well in a round-bottom 96 well plate. Cells were incubated with TruStain Fc block and 10 μg/mL antibody for 1 hour on ice before washing with 250 μL ice cold PBS twice. Cells were then incubated with the appropriate APC-conjugated secondary antibodies for 20 minutes in the dark on ice. Finally, cells were washed twice with ice cold FACS buffer and then resuspended in 100 μL FACS buffer containing 1% propidium iodide. Samples were immediately analyzed using a BD FACSCanto flow cytometer. The gMFI was calculated using FlowJo software minus the gMFI of the appropriate isotype control.

[6] = biological target: T4, human CD300LB on primary human monocytes; assay: flow cytometry, primary human monocytes donor 1282, 10 ug/mL antibody, isotype control subtracted
Description: as §3

[7] = biological target: T4, human CD300LB on primary human monocytes; assay: flow cytometry, primary human monocytes donor 1283, 10 ug/mL antibody, isotype control subtracted
Description: as §3

[8] = biological target: T4, human CD300LB on primary human monocytes; assay: flow cytometry, primary human monocytes donor 1284, 10 ug/mL antibody, isotype control subtracted
Description: as §3

[9] = biological target: T5, human CD300LB on primary human …; assay: flow cytometry, primary human macrophages donor 1275, 10 ug/mL antibody, isotype control subtracted
Description: as §3

[10] = biological target: T5, human CD300LB on primary human …; assay: flow cytometry, primary human macrophages donor 1277, 10 ug/mL antibody, isotype control subtracted
Description: as §3

[11] = biological target: T5, human CD300LB on primary human …; assay: flow cytometry, primary human macrophages donor 1278, 10 ug/mL antibody, isotype control subtracted
Description: as §3

[12] = biological target: T6, murine CD300LB stably expressed on …; assay: flow cytometry, stable Jurkat cells
[13] = biological target: T3, recombinant human CD300LB overexpressed …; assay: flow cytometry, stable Jurkat cells, supernatant or 10 ug/mL, isotype subtracted
Description: (§4) Purified anti-CD300LB antibodies of the present disclosure were also evaluated for species cross-reactivity to mouse and human CD300LB stably expressed in Jurkat cells (generation of which is described above). Cells were counted and labeled with 200 nM CFSE, 500 nM VioBlue, or a combination of the two to discriminate between human CD300LB, Parental cells and mouse CD300LB. Cells were washed thoroughly with PBS containing 2% fetal bovine serum then resuspended at a total of 240,000 cells per well. Hybridoma supernatants (100 L) or purified antibodies at 10 μg/mL were added and incubated for one hour before the cells were washed again and stained with an APC-labeled anti-human or anti-mouse secondary. Cells were then analyzed using a BD FACSCanto II. Antibodies were analyzed for binding to mouse or human CD300LB by FlowJo software by gating on live cells, then the APC gMFI calculated for each labeled population by subtraction of the gMFI of the appropriate isotype control.

[14] = biological target: T6, murine CD300LB stably expressed on …; assay: as above
Description: as §4

[15] = biological target: T7, huCD300LB-DAP12 fusion constitutively …; assay: flow cytometry, geometric mean (APC-A), FreeStyle HEK cells expressing huCD300LB
Description: as §1

Row | Binder | gMFI [1] [gMFI] | binding result [2] | gMFI [2] [gMFI] | gMFI [3] [gMFI] | Kd [4] [nM] | gMFI [5] [gMFI] | gMFI [6] [gMFI] | gMFI [7] [gMFI] | gMFI [8] [gMFI] | gMFI [9] [gMFI] | gMFI [10] [gMFI] | gMFI [11] [gMFI] | binding result [12] | gMFI [13] [gMFI] | gMFI [14] [gMFI] | binding result [15]
1 | B1 | 37900 | no binding | 28 | 445 | 109 | 1370 | 3070 | 2580 | 1040 | 19700 | 15700 | 13300 |  |  |  | 
2 | B2 | 56800 | no binding | 212 | 774 | 45 | 2970 | 4470 | 1920 | 1400 | 3580 | 2800 | 135000 |  |  |  | 
3 | B3 | 190 |  |  | 207 | 32 |  |  |  |  |  |  |  | no binding (tested: 10 ug/mL) | 193 | 18 | no binding
